Assay results published in patent US20110212106A1, “HIV-1 NE[…] USES THEREOF” (priority 2010, published 2011).
Read-outs that look alike come from different tables or passages of the source.

Columns and labels:
[1] = test system: HIV-1 pseudoviruses in HOS-CD4-CCR5 cells
Method: To measure the neutralization activity of the isolated mAbs, luciferase-encoding virions pseudotyped with the desired HIV-1 Env proteins were used in a single-cycle infectivity assay, as previously described (Gorny M K, et al. (2002) J Virol 76: 9035-9045). Briefly, appropriate dilutions of the virion-containing culture supernatants were pre-incubated at 37° C. for 1 h with mAbs at various concentrations. The virus-mAb mixtures were added to HOS-CD4-CCR5 cells and incubated for 3 days at 37° C. A similar protocol was used for supernatants screening using TZM-bl cells (Li M, et al. (2006) J Virol 80: 11776-11790). The cells were then lysed with Britelite reagent (Perkin-Elmer) and the relative light units in the cell lysates were determined on a luminometer microplate reader (Veritas, Turner Biosystems). The 50% inhibitory dose (IC50) was defined as the sample concentration at which relative luminescence units were reduced 50% compared to virus control wells.
The neutralizing activity of the mAbs was measured using 20 pseudotyped HIV-1 primary isolate envs characterized by different sensitivity to neutralization (Li M, et al. (2005) J Virol 79: 10108-10125; Li M, et al. (2006) J Virol 80: 11776-11790). The mAbs were tested at a fixed concentration (100 μg/ml) in the luciferase based neutralization assay using HOS-CD4.R5 as target cells.

[2] = test system: gp120 binding to sCD4; settings: inhibition of sCD4 binding
Method: Shown is mean±SD of triplicates.
The ability of mAbs to inhibit binding of sCD4 to gp120 or gp140 was evaluated by ELISA. Serial dilutions of mAbs were pre-incubated with gp120 (or gp140) and added to plates pre-coated with sCD4. After 1 h plates were washed and incubated with sheep polyclonal antibody D7324 (Aalto Bio-Reagents) followed by washing, incubation with AP-conjugated rabbit anti-sheep IgG antibody (Abcam, Cambridge, UK), extensive washing and detection using p-NPP (Sigma) as substrate.

[3] = test system: HIV-1 pseudoviruses in TZM-bl cells
[4] = In vivo administration in macaques
Text: Specificity: V3 loop. Pepscan analysis identified the epitope which is very conserved in the tip of V3 of gp120. It includes 4 residues involved in co-receptor (CCR5 or CXCR4) binding. Also HGN194 has accessibility problems (Fab fragment and single chain antibody may work better). Neutralizes most Tier 1 isolates (they are more sensitive isolates since the epitope is more accessible).

[5] = test system: gp120
Method: For competition assays mAbs were purified on Protein G columns (GE Healthcare) and biotinylated using the EZ-Link NHS-PEO solid phase biotinylation kit (Pierce). The competition between unlabeled and biotinylated mAbs for binding to immobilized Env antigens was measured by ELISA. Briefly, unlabelled competitor mAbs were added at different concentrations. After 1 hour biotinylated mAbs were added at a concentration corresponding to the 70-80% of the maximal OD level. After incubation for 1 h, plates were washed and bound biotinylated mAb was detected using AP-labeled streptavidin (Jackson Immunoresearch). The percentage of inhibition was tested in triplicates and calculated as follow: (1−[(ODsample−ODneg ctr)/(ODpos ctr−ODneg ctr)])×100.

[6] = test system: HIV-1 isolates; assay: Neutralization of HIV-1 isolates (TZMbl-based or HOS-based assay, not specified); assay type: cell-based
Text: FIG. 5. Epitope mapping of V3-specific mAbs by linear and circular peptide scanning. (A) Eight gp120-specific mAbs were mapped with linear and cyclic peptides to the V3 region. Shown is the HIV-1 isolate used for the mapping, the minimal epitope, the binding breadth expressed as number of recombinant Env proteins out of the 16 tested, and the fraction of isolates neutralized in the HOS and TZMbl-based neutralization assays, respectively. (B) Alignment of the region corresponding to the epitope recognized by mAb HGN194 in 44 HIV-1 isolates. Co-receptor binding residues are bold. Highlighted in grey are the isolates neutralized by HGN194 either in the TZMbl-based or in the HOS-based assays. […]
To measure the neutralization activity of the isolated mAbs, luciferase-encoding virions pseudotyped with the desired HIV-1 Env proteins were used in a single-cycle infectivity assay, as previously described (Gorny M K, et al. (2002) J Virol 76: 9035-9045). […] The cells were then lysed with Britelite reagent (Perkin-Elmer) and the relative light units in the cell lysates were determined on a luminometer microplate reader (Veritas, Turner Biosystems). […]

B1: HGN194: human mAb binding the V3 crown of gp120; VH SEQ ID NO: 45, VL SEQ ID NO: 46 (antibody, listed as Homo sapiens, V domains shown)
VH: EVQLVQSGAEVKKPGESLKISCYGSGYNFNDYWIGWVRQMPGKGLEWMGMIYPDDSDTKYSAAFEGQVTLSADKSISTAYLQWTSLRASDTATYYCARLDGDYADFDSWGQGTLVTVSS
VL: QSVLTQPPSVSAAPGQKVTISCSGTNSNLGDKFVSWYQQLPGTAPRLLIYDNDKRPSGIPDRFSGSKSGASATLAITGLQTGDEADYYCGTWDNSLSALFGGGTKLTVL
[1]; HOS-based assay, isolates neutralized/isolates tested
  Neutralization HOS (number of isolates neutralized): 11/20
[1]; mAb at fixed concentration 100 μg/ml
  pseudoviruses neutralized out of the 20 pseudoviruses: 11
[1]; neutralized/tested
  pseudoviruses neutralized in the HOS-based assay: 11/20
[2]
  Cross-competition with: sCD4: − (−, <50% inhibition)
[3]; All (92)
  Percentage of HIV-1 isolates neutralized: 21%
[3]; TZM-bl based assay, isolates neutralized/isolates tested
  Neutralization TZM-bl (number of isolates neutralized): 19/92
[3]; Tier 1 (10)
  Percentage of HIV-1 isolates neutralized: 100%
[3]; Tier 1 + Tier 2, Clade A (8)
  Percentage of HIV-1 isolates neutralized: 38%
[3]; Tier 1 + Tier 2, Clade AD (1)
  Percentage of HIV-1 isolates neutralized: 0%
[3]; Tier 1 + Tier 2, Clade AG (16)
  Percentage of HIV-1 isolates neutralized: 0%
[3]; Tier 1 + Tier 2, Clade B (29)
  Percentage of HIV-1 isolates neutralized: 24%
[3]; Tier 1 + Tier 2, Clade BC (11)
  Percentage of HIV-1 isolates neutralized: 0%
[3]; Tier 1 + Tier 2, Clade C (26)
  Percentage of HIV-1 isolates neutralized: 23%
[3]; Tier 1 + Tier 2, Clade G (1)
  Percentage of HIV-1 isolates neutralized: 0%
[3]; Tier 2 (82)
  Percentage of HIV-1 isolates neutralized: 11%
[3]; Tier 2, Clade A (5)
  Percentage of HIV-1 isolates neutralized: 20%
[3]; Tier 2, Clade AD (1)
  Percentage of HIV-1 isolates neutralized: 0%
[3]; Tier 2, Clade AG (16)
  Percentage of HIV-1 isolates neutralized: 0%
[3]; Tier 2, Clade B (24)
  Percentage of HIV-1 isolates neutralized: 8%
[3]; Tier 2, Clade BC (11)
  Percentage of HIV-1 isolates neutralized: 0%
[3]; Tier 2, Clade C (24)
  Percentage of HIV-1 isolates neutralized: 17%
[3]; Tier 2, Clade G (1)
  Percentage of HIV-1 isolates neutralized: 0%
[3]; neutralized/tested
  pseudoviruses neutralized in the TZM-bl based assay: 19/92
[4]
  efficacy in macaques: complete protection
[5]; inhibition of biotinylated mAb 2G12 binding to immobilized gp120
  Cross-competition with: 2G12: − (−, <50% inhibition)
[5]; inhibition of biotinylated mAb HGA9 binding to immobilized gp120
  Cross-competition with: HGA9: + (+,90-100% inhibition)
[5]; inhibition of biotinylated mAb HJ16 binding to immobilized gp120
  Cross-competition with: HJ16: − (−, <50% inhibition)
[5]; inhibition of biotinylated mAb HR10 binding to immobilized gp120
  Cross-competition with: HR10: + (+,90-100% inhibition)
[5]; inhibition of biotinylated mAb b12 binding to immobilized gp120
  Cross-competition with: b12: − (−, <50% inhibition)
[6]; isolate 93MW965.26
  IC50: < 0.02 µg/mL
[6]; isolates Du422.1, ZM197M.PB7 and Du172.17
  neutralization: not neutralized
